A short description of data set [1]: Circular dichroism: secondary structure and thermal stability. The format is physicochemical. Here is the method:
MIIA^1851-1960 was dialyzed into 20 mM Tris pH 7.5, 150 mM KCl, 0.5 mM CaCl2, 0.02% NaN3 and clarified by ultracentrifugation at 80,000 rpm for 10 minutes at 4°C in TLA 120.2 rotor. MIIA^1851-1960 (40 μM monomer concentration) was transferred to a 1 mm path-length quartz cuvette and scanned in Jasco J-815 Spectrometer equipped with a PFD-425 temperature controller. Spectra from 190 to 260 nm were obtained at 22°C using a scan speed of 100 nm/minute, a 1 nm bandwidth, and a sensitivity of 100 mdeg. Thermal melt curves were obtained by monitoring ellipticity at 222 nm while the sample temperature was increased from 2 – 85°C in 2°C intervals at a rate of 60°C/h, using a 1 nm bandwidth. The data were fit to a sigmoidal dose–response with a variable slope using Graphpad Prism v5.

In data set [2] the target is T1, S100A4 (Homo sapiens, UniProt P26447).
T1 construct: heteronuclear single quantum coherence spectrum (HSQC) of full-length Ca^2+-S100A4 at 600 MHz; made in house; host or cells: E. coli, M9 medium with 15N NH4Cl (BL21(DE3)* is named for the unlabelled protein)
T1 sequence (P26447 2-101 limits assumed, one chain of several): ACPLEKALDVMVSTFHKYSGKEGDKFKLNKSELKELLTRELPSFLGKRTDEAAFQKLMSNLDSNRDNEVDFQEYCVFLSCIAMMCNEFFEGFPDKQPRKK
Nature of the data set: Sedimentation velocity of MIIA^1851-1960, S100A4 and S100A4/MIIA^1851-1960 mixtures. Type of data set: physicochemical. The conditions noted are these: sedimentation velocity, protein alone. The method, then:
(§1) Sedimentation equilibrium and velocity experiments were conducted at 22°C in a Beckman XL-I analytical ultracentrifuge using a Ti60 rotor and Raleigh interference optics. Wild-type S100A4 and MIIA^1851-1960 were dialyzed into 20 mM Tris pH 7.5, 150 mM KCl, 0.5 mM CaCl2, 1 mM TCEP and 0.02% NaN3 and clarified by ultracentrifugation at 80,000 rpm for 10 minutes at 4°C in TLA 120.2 rotor. Sedimentation equilibrium analysis of MIIA^1851-1960 and S100A4 was conducted in six channel centerpieces by sequentially equilibrating the protein at three concentrations for 24 hr at 12,000, 20,000 and 28,000 rpm and globally analyzing the data using HeteroAnalysis v1.1.44 (James L. Cole and Jeffrey W. Lary). The sedimentation velocity experiments were conducted at 53,000 rpm using double sector centerpieces and analyzed using DCDT + v2.4.0 [57, 58]. The best-fit parameters and their 95% joint confidence intervals are reported. The calculated masses of the wild-type S100A4 and MIIA^1851-1960 monomers are 11,597.3 and 12,397.5 Da, respectively. Values of ν-bar = 0.715 for S100A4/MIIA^851-1960 and 0.735 for S100A4, ρ = 1.0059, μ = 1.00586 cp were calculated using Sednterp v1.06 (Hayes, B., T. Laue & J. Philo, Sedimentation Interpretation Program. 2003, University of New Hampshire) from the amino acid and buffer compositions, respectively.

A short description of data set [3]: Sedimentation equilibrium of MIIA^1851-1960 and S100A4/MIIA^1851-1960 mixtures. Type of data set: physicochemical, human. The conditions noted are these: 22°C, MIIA^1851-1960 alone, 20 mM Tris pH 7.5, 150 mM KCl, 0.5 mM CaCl2, 1 mM TCEP, 0.02% NaN3, predicted 24,795. The method, then:
as §1

The target of data set [4] is T1, S100A4. Described as above. Type of data set: physicochemical. The conditions noted are these: 22°C. Here is the method: as §1
The conditions of data set [5]: ref [45]; cited from earlier work. The text has this: An interesting feature of the S100A4/myosin-IIA complex is that myosin-IIA residues contributing to the coiled-coil interface also mediate S100A4 binding.

B1: MIIA^1851-1960: C-terminal fragment of the human myosin-IIA heavy chain that corresponds to residues 1851–1960 (protein)
chain: VDDERRNAEQYKDQADKASTRLKQLKRQLEEAEEEAQRANASRRKLQRELEDATETADAMNREVSSLKNKLRRGDLPFVVPRRMARKGAGDGSDEEVDGKADGAEAKPAE
Consider B1, for which the “Reversibility of thermal unfolding” value in data set [1] (CD, 222 nm, data not shown) is “reversible”. In addition, the “Transition midpoint (Tm) for unfolding” value in data set [1] (CD, ellipticity at 222 nm, 40 μM monomer, 20 mM Tris pH 7.5, 150 mM KCl, 0.5 mM CaCl2, 0.02% NaN3, 2 – 85°C at 60°C/h, average of two independent experiments) turned out to be 27 °C. In data set [1] (far-UV, 190 to 260 nm, 22°C, 40 μM MIIA^1851-1960 monomer, pH 7.5), the “Secondary structure by CD” value is “primarily α-helical”. For the same molecule, the “Peak 1 S20,w” value in data set [2] (22°C, 53,000 rpm, 20 mM Tris pH 7.5, 150 mM KCl, 0.5 mM CaCl2, 1 mM TCEP, 0.02% NaN3) is 1.91 ± 0.01. In data set [2] (22°C), the “Peak 1 MW” value is on record as 18.5 ± 0.2 kDa; the S value came out at 1.91 S; the “[Peak 1] (green), relative amount of plateau concentrations” value is on record as 2.09 ± 0.02. In addition, in data set [3], the “Experimental MW (weight-average molecular mass)” value is reported as 25,651 ± 308 Da. For the same molecule, the Oligomeric state entry in data set [4] is “we did not detect any monomer”.

B2: myosin-IIA rod (residues 1102–1960): myosin-IIA rod, residues 1102–1960 (protein, UniProt P35579 1102-1960, looked up, fragment)
chain: ALKKIRELESQISELQEDLESERASRNKAEKQKRDLGEELEALKTELEDTLDSTAAQQELRSKREQEVNILKKTLEEEAKTHEAQIQEMRQKHSQAVEELAEQLEQTKRVKANLEKAKQTLENERGELANEVKVLLQGKGDSEHKRKKVEAQLQELQVKFNEGERVRTELADKVTKLQVELDNVTGLLSQSDSKSSKLTKDFSALESQLQDTQELLQEENRQKLSLSTKLKQVEDEKNSFREQLEEEEEAKHNLEKQIATLHAQVADMKKKMEDSVGCLETAEEVKRKLQKDLEGLSQRHEEKVAAYDKLEKTKTRLQQELDDLLVDLDHQRQSACNLEKKQKKFDQLLAEEKTISAKYAEERDRAEAEAREKETKALSLARALEEAMEQKAELERLNKQFRTEMEDLMSSKDDVGKSVHELEKSKRALEQQVEEMKTQLEELEDELQATEDAKLRLEVNLQAMKAQFERDLQGRDEQSEEKKKQLVRQVREMEAELEDERKQRSMAVAARKKLEMDLKDLEAHIDSANKNRDEAIKQLRKLQAQMKDCMRELDDTRASREEILAQAKENEKKLKSMEAEMIQLQEELAAAERAKRQAQQERDELADEIANSSGKGALALEEKRRLEARIAQLEEELEEEQGNTELINDRLKKANLQIDQINTDLNLERSHAQKNENARQQLERQNKELKVKLQEMEGTVKSKYKASITALEAKIAQLEEQLDNETKERQAACKQVRRTEKKLKDVLLQVDDERRNAEQYKDQADKASTRLKQLKRQLEEAEEEAQRANASRRKLQRELEDATETADAMNREVSSLKNKLRRGDLPFVVPRRMARKGAGDGSDEEVDGKADGAEAKPAE
Consider B2, for which the Tm in data set [5] was 45 °C.

These data come from publication PMC3924328, “Structure of the S100A4/myosin-IIA complex” (BMC Structural Biology, 2013).
